Positions count from the first letter of the chain named.
T1: Cas12i-111 (N295R,N260R,G705R,L332R)
T1 chain: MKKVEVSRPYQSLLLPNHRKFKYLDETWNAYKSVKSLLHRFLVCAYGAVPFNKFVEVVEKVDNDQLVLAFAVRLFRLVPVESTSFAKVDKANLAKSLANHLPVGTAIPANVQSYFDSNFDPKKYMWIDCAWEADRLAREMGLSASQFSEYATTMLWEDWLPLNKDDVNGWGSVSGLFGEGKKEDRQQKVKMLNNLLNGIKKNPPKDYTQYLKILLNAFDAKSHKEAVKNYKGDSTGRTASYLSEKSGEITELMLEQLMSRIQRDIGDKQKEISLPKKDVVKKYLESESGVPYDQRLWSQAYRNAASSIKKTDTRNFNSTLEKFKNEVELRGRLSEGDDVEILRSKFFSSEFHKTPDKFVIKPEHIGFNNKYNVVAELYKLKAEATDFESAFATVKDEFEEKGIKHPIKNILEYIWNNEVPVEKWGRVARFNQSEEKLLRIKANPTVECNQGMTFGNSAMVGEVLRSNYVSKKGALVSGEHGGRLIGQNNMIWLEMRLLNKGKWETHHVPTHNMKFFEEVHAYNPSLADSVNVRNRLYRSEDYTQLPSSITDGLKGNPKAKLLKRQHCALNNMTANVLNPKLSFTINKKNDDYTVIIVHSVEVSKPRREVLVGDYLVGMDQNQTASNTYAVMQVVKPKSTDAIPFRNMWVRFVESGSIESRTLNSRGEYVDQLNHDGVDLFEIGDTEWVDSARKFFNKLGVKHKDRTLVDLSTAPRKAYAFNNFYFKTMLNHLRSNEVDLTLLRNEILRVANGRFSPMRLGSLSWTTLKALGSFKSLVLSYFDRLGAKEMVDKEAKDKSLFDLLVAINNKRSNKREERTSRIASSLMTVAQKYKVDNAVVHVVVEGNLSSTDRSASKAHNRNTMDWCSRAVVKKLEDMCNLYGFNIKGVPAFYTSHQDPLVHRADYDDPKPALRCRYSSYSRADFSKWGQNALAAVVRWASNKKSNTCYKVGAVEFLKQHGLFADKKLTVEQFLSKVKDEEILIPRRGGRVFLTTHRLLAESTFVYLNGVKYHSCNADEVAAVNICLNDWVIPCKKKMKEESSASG

T2: Cas12i-133 (N295R,N260R,G705R,Q971E)
T2 chain: T1 chain with R332L, Q971E

B1: gRNA-HBB ; HBB target (ssRNA ; dsDNA)
RNA: AGAGAAUGUGUGCAUAGUCACACUAUGCAGAAAUAUUGCUAUUGCCU
DNA 1: TATGCAGAAATATTGCTATTGCCT
DNA 2: AGGCAATAGCAATATTTCTGCATA
B2: gRNA-HBG ; HBG target (ssRNA ; dsDNA)
RNA: AGAGAAUGUGUGCAUAGUCACACACAAGGCAAACUUGACCAAU
DNA 1: ACAAGGCAAACTTGACCAAT
DNA 2: ATTGGTCAAGTTTGCCTTGT
B3: gRNA-TTR ; TTR target (ssRNA ; dsDNA)
RNA: AGAGAAUGUGUGCAUAGUCACACCAGUAAGAUUUGGUGUCUAU
DNA 1: CAGTAAGATTTGGTGTCTAT
DNA 2: ATAGACACCAAATCTTACTG

Molecular target: T1, Cas12i-111
Test: cell_activity; 293T indels
Method: (§1) Plating: The 293T cell line was plated when the confluence reached 70-80%, and the number of cells seeded in a 24-well plate was 5*10\hat{ }5 cells/well.
(§2) Transfection: After 12-14 hours of plating, transfection was performed. 100 μl of Opti-MEM, 1.5 μl of PEI (Yisheng Bio, Polyethylenimine Linear (PEI) MW25000), 250 ng of the mutant clone plasmid from Example 2, and 250 ng of gRNA plasmid for targeting endogenous genes were added to each well of a 24-well plate. The mixture was incubated at room temperature for 20 minutes and then added to 293T cells for transfection. After transfection overnight, the medium was replaced with fresh medium and cultured for the next period.
(§3) DNA extraction, PCR amplification, and Sanger sequencing: After culturing for 72 hours, cells were washed with PBS, and then 100 μl of cell lysis buffer (Viagen, DirectPCR® Lysis Reagent (Cell)) was added for lysis to obtain a lysate containing genomic DNA. The genomic DNA was amplified in the region near the target sequence, and the PCR product was sent to a sequencing company for Sanger sequencing.

| Binder | relative indel editing efficiency |
| --- | --- |
| B1 | 1.01 fold of Cas12i-69 |
| B2 | 1.53 fold of wild type |
| B3 | 3.91 fold of wild type |

Molecular target: T2, Cas12i-133
Test: cell_activity; 293T indels
Method: as §1, §2, §3

| Binder | relative indel editing efficiency |
| --- | --- |
| B1 | 0.78 fold of Cas12i-69 |
| B2 | 1.57 fold of wild type |
| B3 | 4.95 fold of wild type |

Reference: patent publication US20260250651, “CAS12 PROTEINS AND USES THEREOF” (GUANGZHOU REFORGENE MEDICINE CO., LTD., published 2026)
